The values below come from patent US20210388081A1 (Memorial Sloan Kettering, published 2021).

Assay [1] has as its target T1, FcRL6, overexpressed on 3T3 cells (UniProt Q6DN72 20-434, limits assumed).
T1 construct: whole, on cells
T1 sequence (looked up): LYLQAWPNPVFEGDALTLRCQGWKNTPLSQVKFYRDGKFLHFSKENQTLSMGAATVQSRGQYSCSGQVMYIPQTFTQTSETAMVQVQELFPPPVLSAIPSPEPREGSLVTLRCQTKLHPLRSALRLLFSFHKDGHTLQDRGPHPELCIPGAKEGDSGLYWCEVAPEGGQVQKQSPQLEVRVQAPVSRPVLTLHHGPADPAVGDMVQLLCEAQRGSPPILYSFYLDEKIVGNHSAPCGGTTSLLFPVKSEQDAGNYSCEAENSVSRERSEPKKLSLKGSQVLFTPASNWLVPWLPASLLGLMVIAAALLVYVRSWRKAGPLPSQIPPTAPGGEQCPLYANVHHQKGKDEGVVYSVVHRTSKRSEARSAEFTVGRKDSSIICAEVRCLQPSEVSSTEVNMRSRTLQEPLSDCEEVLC
Put plainly: phage clone on 3T3-FcRL6 cells.

The target in assay [2] is T2, FcRL3, overexpressed on 3T3 cells (UniProt Q96P31 18-734, limits assumed).
T2 construct: whole, on cells
T2 sequence (looked up): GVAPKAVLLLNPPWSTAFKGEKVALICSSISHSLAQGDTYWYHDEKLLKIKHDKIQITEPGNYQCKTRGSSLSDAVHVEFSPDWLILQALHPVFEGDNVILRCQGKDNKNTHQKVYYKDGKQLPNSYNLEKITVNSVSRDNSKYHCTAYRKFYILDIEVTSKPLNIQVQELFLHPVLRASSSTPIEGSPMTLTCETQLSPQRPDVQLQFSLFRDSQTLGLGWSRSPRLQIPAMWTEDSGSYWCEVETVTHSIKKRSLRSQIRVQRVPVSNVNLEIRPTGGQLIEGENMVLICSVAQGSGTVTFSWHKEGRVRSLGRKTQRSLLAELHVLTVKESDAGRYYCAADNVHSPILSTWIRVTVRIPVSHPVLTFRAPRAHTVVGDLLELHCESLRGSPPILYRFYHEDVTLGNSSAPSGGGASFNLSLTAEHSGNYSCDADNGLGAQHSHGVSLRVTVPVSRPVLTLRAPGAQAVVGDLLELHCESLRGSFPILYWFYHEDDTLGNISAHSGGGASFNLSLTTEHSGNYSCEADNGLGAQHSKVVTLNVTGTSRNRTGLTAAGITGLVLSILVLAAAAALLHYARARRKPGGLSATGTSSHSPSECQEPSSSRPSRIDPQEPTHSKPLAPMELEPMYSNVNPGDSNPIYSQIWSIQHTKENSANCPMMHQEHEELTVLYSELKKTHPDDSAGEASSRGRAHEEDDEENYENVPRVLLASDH
The assay is described as follows: phage clone on 3T3-FcRL3 cells.

Assay [3] has as its target T3, Fc Receptor-like 5 (FcRL5), full length, overexpressed on 3T3 or Raji cells (human, UniProt Q96RD9 16-977).
T3 construct: also called 3T3-FcRL5
T3 sequence: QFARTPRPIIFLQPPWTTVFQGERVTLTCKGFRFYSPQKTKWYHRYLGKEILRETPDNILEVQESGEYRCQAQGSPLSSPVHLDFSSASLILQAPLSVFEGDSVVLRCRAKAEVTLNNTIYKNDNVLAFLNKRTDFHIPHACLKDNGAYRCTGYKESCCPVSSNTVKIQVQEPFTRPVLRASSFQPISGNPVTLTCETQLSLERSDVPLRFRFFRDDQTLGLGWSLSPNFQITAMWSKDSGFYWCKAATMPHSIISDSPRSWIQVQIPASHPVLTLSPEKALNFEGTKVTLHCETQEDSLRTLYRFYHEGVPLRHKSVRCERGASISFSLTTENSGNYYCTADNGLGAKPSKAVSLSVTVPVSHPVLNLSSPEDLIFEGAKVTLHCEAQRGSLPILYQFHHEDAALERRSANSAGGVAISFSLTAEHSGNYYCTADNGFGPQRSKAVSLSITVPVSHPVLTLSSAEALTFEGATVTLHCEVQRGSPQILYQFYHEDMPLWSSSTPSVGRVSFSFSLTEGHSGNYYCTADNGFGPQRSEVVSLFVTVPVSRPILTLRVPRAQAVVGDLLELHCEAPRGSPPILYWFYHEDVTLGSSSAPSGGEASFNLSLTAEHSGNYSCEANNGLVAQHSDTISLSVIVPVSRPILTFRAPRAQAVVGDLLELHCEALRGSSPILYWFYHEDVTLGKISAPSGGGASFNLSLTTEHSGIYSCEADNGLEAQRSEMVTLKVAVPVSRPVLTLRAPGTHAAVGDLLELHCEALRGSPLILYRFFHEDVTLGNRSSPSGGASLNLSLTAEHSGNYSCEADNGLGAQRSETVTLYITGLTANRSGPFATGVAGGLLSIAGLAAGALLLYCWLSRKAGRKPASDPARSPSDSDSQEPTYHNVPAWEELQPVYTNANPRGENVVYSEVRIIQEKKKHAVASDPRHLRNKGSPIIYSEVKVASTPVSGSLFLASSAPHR
Put plainly: phage clone screening on cells. In short, it runs like this:
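scFv phage clones were incubated with live 3T3 cells overexpressing full-length FcRL5, then detected with mouse anti-M13 mAb and PE-anti-mouse Ig by flow cytometry. 3T3 cells expressing FcRL1, 2, 3, 4 or 6 served as negative-control targets.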

The target in assay [4] is SLAMF9 protein (UniProt Q96A28 19-236, limits assumed). The assay is described as follows: phage clone on SLAMF9 protein.
Sequence of SLAMF9 protein (Q96A28 19-236 limits assumed): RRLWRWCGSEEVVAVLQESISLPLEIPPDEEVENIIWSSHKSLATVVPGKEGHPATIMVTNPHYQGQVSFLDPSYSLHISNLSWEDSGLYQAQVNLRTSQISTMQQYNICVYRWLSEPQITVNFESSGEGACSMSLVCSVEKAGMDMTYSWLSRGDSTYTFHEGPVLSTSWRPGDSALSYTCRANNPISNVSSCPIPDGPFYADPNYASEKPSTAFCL
Assay [5] concerns the target T4, FcRL2, overexpressed on 3T3 cells (UniProt Q96LA5 20-508, limits assumed).
T4 construct: whole, on cells
T4 sequence (looked up): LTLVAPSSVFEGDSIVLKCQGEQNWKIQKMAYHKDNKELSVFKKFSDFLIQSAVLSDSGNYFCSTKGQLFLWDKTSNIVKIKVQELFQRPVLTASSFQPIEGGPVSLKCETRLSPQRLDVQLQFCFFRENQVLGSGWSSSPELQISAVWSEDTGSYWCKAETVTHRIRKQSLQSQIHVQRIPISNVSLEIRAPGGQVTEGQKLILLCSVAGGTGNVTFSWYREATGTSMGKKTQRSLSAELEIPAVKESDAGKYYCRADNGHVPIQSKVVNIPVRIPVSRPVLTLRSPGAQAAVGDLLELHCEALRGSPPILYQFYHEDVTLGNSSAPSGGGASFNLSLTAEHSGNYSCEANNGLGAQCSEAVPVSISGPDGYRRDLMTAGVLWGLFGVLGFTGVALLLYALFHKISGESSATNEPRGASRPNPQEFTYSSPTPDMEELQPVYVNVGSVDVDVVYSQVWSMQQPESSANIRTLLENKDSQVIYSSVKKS
Put plainly: phage clone on 3T3-FcRL2 cells.

B1: ET200-110 (scFv)
scFv: QSVLTQPPSASGTPGQRVTISCSGSSSNIGTNGVNWFQQFPGTAPKLLIYTNDQRPSGVPDRFSGSKSGTSASLAISGLQSADEADYYCAVWDHSLNGPVFGGGTKLTVLGSRGGGGSGGGGSGGGGSLEMAQVQLVQSGAEVKKPGSSVKVSCKASGGTFSSYAISWVRQAPGQGLEWMGGIIPIFGTANYAQKFQGRVTITADESTSTAYMELSSLRSEDTAVYYCARGAGFDAFDIWGQGTMVTVSSTSGQAGQHHHHHHGAYPYDVPDYAS
notes: screened as phage clone; entry is VL-linker-VH-His tag-HA tag
Take B1: the binding result is listed as “no binding” in assay [1]; “no binding” in assay [2]; “binds” in assay [3]; “no binding” in assay [4]; “no binding” in assay [5].

B2: ET200-112 (scFv)
scFv: QAVLTQPPSASGTPGQRVTISCSGSSSNIGSNTVNWYQQLPGTAPKLLMYSNDQRPSGVPDRFSGSKSGTSASLAISGLQSEDEADYYCAAWDDSLNGYVFAAGTQLTVLSSRGGGGSGGGGSGGGGSLEMAQVQLQQWGAGLLKPSETLSLTCAVYGGSFSGYYWSWIRQPPGKGLEWIGEINHSGSTNYNPSLKSRVTISVDTSKNQFSLKLSSVTAADTAVYYCAREGLDAFDIWGQGTMVTVSSTSGQAGQHHHHHHGAYPYDVPDYAS
notes: as for B1
B2: the binding result in assay [1] is listed as “no binding”; in assay [2] it was “no binding”; in assay [3] it was “binds”; in assay [4], “no binding”; in assay [5], “no binding”.

B3: ET200-113 (scFv)
scFv: QSVVTQPPSVSAAPGQKVTISCSGSSSNIGNNYVSWYQQLPGTAPKLLIYDNNKRPSGIPDRFSGSKSGTSATLGITGLQTGDEADYYCGTWDSSLSAAYVFGTGTKVTVLGSRGGGGSGGGGSGGGGSLEMAQVQLVQSGAEVKKPGASVKVSCKASGYSFTSYTISWVRQAPGQGLEWMGWVSTYNGLRNYAQNLQGRVTMTTDTLTTTAYMELRSLRSDDTAVYYCVREGSPDYGDFAAFDYWGQGTLVTVSSTSGQAGQHHHHHHGAYPYDVPDYAS
notes: as for B1
B3: the binding result in assay [1] was “no binding”; in assay [2], “no binding”; in assay [3], “binds”; in assay [4] it was “no binding”; in assay [5], “no binding”.

B4: ET200-109 (scFv)
scFv: LPVLTQPPSASATPGQRVTISCSGTTSNIGSNTVHWYQQLPGTAPKLLIYNNNQRPSGVPDRFSGSKSGTSASLAISGLRSEDEATYSCATWDDSLSGVVFGGGTKLTVLGSRGGGGSGGGGSGGGGSLEMAEVQLVQSGAEVKKPGSSVKVSCKASGGTFSSYAISWVRQAPGQGLEWMGGIIPIFGTANYAQKFQGRVTITADESTSTAYMELSSLRSEDTAVYYCARDPAYGDYEYDAFDIWGQGTMVTVSSTSGQAGQHHHHHHGAYPYDVPDYAS
notes: as for B1
With B4, the binding result was “no binding” in assay [1]; “no binding” in assay [2]; “binds” in assay [3]; “no binding” in assay [4]; “no binding” in assay [5].

B5: ET200-007 (scFv)
scFv: SYVLTQPLSVSVAPGKTARITCGGNNIGSKTVHWYQQKPGQAPVLVIYYDSDRPSGIPERFSGSNSGNTATLTISRVEAGDEADYYCQVWDSSSDHRVFGGGTKLTVLGSRGGGGSGGGGSGGGGSLEMAQVQLQESGPGLVKPSETLSLTCNVSGYSISSGYFWGWIRQPPGKGLEWIGSIYHSRSTYYNPSLKSRVTISVDTSKNQFSLKLNSVTAADTAVYYCARGYGYFDYWGQGTLVTVSSTSGQAGQHHHHHHGAYPYDVPDYAS
notes: as for B1
As for B5, the binding result is “no binding” in assay [1]; “no binding” in assay [2]; “binds” in assay [3]; “no binding” in assay [4]; “no binding” in assay [5].
